Results taken from patent publication US20130030156A1 (Merck Sharp & Dohme, published 2013).

Molecular target: T1, human ILT5 on the surface of human peripheral blood cells (human, UniProt O75022 24-631)
T1 construct: whole, on cells; Endogenous ILT5 on primary human cells; also called surface ILT5; hILT5
Assay: flow cytometry, TRX585 staining of human PBMCs
From the text: The latter plots show the levels of two fluorescent parameters (i.e., fluorescent antibodies) on various cell subpopulations, quantitate the proportions of cells displaying these parameters, and indicate the frequency of cells present at each point in the plot. Here, peripheral blood mononuclear cells (PBMCs) from a healthy human donor were stained with the TRX585 antibody as well as antibodies specific for the indicated cell subset. In FIG. 1A, plots depict ILT5 (TRX585) expression by gated CD56⁻CD3⁺CD4⁺ or CD56⁻CD3⁺CD8⁺ T cells. In FIG. 1B, PBMCs were stained as in (A) and subsequently stained for intracellular Foxp3. Plots show ILT5 expression by gated CD56⁻CD3⁺CD4⁺Foxp3⁺ or CD56⁻ CD3⁺CD4⁺Foxp3⁻ T cells. […] Percentages of gated cells and mean fluorescence intensity of the ILT5-staining of ILT5⁺ cells are depicted inside and above plots, respectively. […]
Peripheral blood mononuclear cells (PBMCs) from healthy human blood donors were stained with a murine monoclonal antibody (TRX585) comprising a heavy chain variable region comprising the amino acid sequence of SEQ ID NO: 2 or SEQ ID NO: 3, and a light chain variable region comprising the amino acid sequence of SEQ ID NO: 1. […] PBMCs were also stained with antibodies specific for defined hematopoietic cell lineages and analyzed for ILT5 expression by flow cytometry.

T1 sequence (O75022 24-631): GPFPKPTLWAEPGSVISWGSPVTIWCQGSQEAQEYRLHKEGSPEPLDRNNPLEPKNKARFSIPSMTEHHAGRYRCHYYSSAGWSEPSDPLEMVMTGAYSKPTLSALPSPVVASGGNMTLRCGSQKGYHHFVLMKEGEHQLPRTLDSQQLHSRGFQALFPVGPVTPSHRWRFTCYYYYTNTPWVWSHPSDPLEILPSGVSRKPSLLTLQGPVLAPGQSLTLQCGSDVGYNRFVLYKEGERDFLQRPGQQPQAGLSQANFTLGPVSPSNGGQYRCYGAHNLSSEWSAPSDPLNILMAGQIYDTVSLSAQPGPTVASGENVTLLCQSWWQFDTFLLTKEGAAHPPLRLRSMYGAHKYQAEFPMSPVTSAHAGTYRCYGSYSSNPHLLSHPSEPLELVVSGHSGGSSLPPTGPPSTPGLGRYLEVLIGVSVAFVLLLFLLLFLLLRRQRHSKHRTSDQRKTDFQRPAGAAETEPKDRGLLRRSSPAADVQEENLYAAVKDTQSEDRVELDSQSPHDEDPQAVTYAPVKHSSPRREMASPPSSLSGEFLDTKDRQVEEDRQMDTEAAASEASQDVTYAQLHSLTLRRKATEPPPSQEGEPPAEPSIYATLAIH

binding result: binds
B1: TRX585 (8G6 mAb), mouse anti-human ILT5 monoclonal antibody (antibody, V domains shown)
VH: DVQLQESGPGLVKPSQSLFLTCSVTGYSISSSYYWNWIRQFPGNKLEWMGYISFDGSNNYNPSLKNRISITRDTSKNQFFLKLNSVTTEDTATYYCAREKENYYGSSFYYFDYWGLGTSLTVSS
VL: DIQMTQSPASLSVSVGETVTITCRASENIYSNLAWYQQKQGKSPQVLVYAATNLADGVPSRFSGSGSGTQFSLKINSLQSEDFGNYFCQHFWRIPWTFGGGTKLEIK
notes: Murine monoclonal antibody, IgG1, kappa, purified from hybridoma supernatant; also called TRX585 antibody; TRX585 mAb
